# Assay results reported in patent US20260184748A1 (University of Pennsylvania, published 2026).
# Where no end group is shown, it is not given here.
# T1: GLP2R (UniProt O95838 1-553, limits assumed)
# T1 sequence (looked up): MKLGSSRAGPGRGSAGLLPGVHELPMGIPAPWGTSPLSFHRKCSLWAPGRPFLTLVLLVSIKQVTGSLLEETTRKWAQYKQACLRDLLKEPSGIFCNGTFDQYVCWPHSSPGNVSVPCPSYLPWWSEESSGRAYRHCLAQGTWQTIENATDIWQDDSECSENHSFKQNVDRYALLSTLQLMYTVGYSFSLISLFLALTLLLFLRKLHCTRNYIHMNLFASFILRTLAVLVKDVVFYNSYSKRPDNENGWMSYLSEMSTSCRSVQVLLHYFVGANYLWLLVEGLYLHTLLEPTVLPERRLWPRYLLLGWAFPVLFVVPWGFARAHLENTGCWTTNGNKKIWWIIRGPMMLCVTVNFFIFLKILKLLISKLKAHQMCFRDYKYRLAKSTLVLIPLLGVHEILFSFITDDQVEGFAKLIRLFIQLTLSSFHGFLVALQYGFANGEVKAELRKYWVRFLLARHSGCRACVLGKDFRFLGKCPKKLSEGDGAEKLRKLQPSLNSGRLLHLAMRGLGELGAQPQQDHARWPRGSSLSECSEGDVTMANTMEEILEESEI
# T2: NMU1R (UniProt Q9HB89 1-426, limits assumed)
# T2 sequence (looked up): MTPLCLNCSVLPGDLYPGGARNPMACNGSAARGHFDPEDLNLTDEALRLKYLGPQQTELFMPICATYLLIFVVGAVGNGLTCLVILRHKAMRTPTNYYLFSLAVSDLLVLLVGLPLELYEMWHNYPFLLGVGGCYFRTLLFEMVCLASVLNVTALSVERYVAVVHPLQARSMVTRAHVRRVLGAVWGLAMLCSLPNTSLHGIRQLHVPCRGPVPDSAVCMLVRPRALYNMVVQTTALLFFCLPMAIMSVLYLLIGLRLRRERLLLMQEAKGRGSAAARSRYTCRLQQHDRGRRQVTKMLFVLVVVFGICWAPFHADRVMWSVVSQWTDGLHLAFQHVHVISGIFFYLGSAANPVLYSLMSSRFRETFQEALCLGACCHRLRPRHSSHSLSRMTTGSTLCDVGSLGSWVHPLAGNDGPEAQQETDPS
# T3: TBXA2R (UniProt P21731 1-343, limits assumed)
# T3 sequence (looked up): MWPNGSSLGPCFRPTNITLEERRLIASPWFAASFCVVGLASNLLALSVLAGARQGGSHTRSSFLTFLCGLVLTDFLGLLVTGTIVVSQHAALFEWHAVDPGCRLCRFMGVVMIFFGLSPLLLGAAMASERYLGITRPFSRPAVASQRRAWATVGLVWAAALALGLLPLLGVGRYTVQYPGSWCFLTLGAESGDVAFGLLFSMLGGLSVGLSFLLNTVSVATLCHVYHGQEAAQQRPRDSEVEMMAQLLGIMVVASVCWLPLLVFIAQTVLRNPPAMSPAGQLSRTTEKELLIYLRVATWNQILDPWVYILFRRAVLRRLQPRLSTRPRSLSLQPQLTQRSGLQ
# T4: CHRM5 (UniProt P08912 1-532)
# T4 sequence (looked up): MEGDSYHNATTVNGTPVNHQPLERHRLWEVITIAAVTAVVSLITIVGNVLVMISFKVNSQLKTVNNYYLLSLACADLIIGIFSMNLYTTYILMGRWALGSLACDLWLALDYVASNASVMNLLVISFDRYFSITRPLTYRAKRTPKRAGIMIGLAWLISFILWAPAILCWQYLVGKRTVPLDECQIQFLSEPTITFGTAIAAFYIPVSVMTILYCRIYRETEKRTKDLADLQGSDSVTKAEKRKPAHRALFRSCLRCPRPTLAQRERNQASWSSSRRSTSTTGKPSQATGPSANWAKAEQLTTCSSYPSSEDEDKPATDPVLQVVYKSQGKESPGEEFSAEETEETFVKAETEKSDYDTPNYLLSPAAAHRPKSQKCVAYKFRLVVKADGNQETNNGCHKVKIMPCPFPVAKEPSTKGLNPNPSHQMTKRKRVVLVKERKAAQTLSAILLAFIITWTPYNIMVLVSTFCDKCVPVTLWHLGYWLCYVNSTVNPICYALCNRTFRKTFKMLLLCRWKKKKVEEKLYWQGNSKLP
# T5: GPR1 (UniProt P46091 1-355)
# T5 sequence (looked up): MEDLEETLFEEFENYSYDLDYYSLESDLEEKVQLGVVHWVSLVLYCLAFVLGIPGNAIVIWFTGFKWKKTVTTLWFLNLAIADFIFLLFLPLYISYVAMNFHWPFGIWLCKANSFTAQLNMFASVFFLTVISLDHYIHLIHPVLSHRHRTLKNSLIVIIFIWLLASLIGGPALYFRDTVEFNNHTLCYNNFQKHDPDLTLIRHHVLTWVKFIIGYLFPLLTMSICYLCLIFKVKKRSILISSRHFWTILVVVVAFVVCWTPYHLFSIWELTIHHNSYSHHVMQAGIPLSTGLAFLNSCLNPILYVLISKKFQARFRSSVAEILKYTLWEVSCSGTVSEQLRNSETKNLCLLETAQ
# Tests used:
# Test in all cases: cell-based or functional assay
# GLP2R = molecular target: T1, GLP2R
# PTAFR = PTAFR (UniProt P25105 1-342)
# Chain of PTAFR (P25105 whole entry): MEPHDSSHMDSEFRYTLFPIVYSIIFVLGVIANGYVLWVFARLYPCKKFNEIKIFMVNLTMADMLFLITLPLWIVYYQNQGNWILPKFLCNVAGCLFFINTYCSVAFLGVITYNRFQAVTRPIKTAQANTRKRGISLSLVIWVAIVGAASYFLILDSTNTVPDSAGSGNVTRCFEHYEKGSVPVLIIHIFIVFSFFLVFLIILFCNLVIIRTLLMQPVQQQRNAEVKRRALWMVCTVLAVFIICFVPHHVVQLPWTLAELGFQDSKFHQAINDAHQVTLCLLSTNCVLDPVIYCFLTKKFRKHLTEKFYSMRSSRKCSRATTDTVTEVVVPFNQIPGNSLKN
# OPRK1 = OPRK1 (UniProt P41145 1-380)
# Chain of OPRK1 (P41145 whole entry): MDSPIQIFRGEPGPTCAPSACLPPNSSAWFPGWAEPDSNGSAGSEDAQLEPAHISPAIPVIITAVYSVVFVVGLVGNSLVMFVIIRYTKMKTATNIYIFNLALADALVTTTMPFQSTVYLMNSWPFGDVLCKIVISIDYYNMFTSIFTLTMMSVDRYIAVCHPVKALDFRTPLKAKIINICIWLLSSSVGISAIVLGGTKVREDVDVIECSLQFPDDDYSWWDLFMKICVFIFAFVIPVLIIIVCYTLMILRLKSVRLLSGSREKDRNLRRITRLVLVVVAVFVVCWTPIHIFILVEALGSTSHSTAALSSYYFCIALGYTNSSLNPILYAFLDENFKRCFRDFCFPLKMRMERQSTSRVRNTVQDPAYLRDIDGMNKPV
# CCR8 = CCR8 (UniProt P51685 1-355)
# NMU1R = molecular target: T2, NMU1R
# TBXA2R = molecular target: T3, TBXA2R
# SSTR1 = SSTR1 (UniProt P30872 1-391)
# Chain of SSTR1 (P30872 whole entry): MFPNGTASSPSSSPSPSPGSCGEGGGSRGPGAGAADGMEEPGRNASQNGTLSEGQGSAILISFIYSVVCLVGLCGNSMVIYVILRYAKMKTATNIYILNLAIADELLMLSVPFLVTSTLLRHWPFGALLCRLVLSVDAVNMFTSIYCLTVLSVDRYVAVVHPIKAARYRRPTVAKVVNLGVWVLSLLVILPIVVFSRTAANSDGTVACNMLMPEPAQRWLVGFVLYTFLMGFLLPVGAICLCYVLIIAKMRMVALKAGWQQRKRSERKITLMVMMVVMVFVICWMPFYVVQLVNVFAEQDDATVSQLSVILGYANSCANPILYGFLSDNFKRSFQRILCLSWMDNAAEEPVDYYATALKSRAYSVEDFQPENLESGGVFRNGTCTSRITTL
# TACR1 = TACR1 (UniProt P25103 1-407)
# Chain of TACR1 (P25103 whole entry): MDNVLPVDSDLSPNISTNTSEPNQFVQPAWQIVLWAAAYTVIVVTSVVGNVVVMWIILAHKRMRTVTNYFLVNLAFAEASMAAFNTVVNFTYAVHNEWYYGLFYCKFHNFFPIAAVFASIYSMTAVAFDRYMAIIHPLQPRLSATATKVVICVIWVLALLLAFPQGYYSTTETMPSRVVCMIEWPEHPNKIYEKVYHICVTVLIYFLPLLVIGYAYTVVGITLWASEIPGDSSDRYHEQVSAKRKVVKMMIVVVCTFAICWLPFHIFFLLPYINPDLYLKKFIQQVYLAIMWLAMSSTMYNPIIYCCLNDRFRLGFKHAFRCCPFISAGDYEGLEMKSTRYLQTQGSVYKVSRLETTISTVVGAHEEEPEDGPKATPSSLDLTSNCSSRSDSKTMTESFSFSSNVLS
# MTNR1A = MTNR1A (UniProt P48039 1-350)
# Chain of MTNR1A (P48039 whole entry): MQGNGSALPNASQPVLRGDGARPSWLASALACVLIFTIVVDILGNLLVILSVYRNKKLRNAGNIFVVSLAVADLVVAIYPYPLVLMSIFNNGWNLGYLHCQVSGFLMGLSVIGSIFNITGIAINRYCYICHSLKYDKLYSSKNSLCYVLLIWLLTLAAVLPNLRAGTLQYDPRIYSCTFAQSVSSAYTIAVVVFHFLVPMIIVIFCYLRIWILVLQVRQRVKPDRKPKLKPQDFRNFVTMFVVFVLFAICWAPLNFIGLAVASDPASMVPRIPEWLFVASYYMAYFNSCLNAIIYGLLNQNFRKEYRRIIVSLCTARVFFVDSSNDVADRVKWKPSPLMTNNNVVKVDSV
# CXCR7 = CXCR7 (UniProt P25106 1-362)
# Chain of CXCR7 (P25106 whole entry): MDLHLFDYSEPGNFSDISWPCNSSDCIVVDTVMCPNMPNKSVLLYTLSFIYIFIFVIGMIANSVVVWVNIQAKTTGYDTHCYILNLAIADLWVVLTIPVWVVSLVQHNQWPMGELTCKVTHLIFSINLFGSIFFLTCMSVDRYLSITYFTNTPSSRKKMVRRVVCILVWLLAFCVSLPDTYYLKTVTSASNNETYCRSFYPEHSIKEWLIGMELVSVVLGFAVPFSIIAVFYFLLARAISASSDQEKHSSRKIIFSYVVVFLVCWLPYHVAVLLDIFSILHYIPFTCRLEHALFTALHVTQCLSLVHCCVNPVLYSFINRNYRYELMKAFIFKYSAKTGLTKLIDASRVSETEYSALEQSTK
# F2RL1 = F2RL1 (UniProt P55085 26-397, limits assumed)
# CHRM5 = molecular target: T4, CHRM5
# P2RY4 = P2RY4 (UniProt P51582 1-365)
# Chain of P2RY4 (P51582 whole entry): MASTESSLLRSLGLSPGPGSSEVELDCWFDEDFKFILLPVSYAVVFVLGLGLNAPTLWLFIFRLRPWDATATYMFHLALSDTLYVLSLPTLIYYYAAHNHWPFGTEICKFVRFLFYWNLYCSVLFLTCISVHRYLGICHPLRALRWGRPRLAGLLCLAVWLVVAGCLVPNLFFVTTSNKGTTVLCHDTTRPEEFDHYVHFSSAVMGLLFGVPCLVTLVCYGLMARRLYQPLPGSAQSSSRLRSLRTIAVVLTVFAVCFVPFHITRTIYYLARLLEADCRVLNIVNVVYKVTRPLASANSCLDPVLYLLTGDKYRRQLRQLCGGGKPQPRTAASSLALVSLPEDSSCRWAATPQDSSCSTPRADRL
# GPR1 = molecular target: T5, GPR1
# MC5R = MC5R (UniProt P33032 1-325)
# Chain of MC5R (P33032 whole entry): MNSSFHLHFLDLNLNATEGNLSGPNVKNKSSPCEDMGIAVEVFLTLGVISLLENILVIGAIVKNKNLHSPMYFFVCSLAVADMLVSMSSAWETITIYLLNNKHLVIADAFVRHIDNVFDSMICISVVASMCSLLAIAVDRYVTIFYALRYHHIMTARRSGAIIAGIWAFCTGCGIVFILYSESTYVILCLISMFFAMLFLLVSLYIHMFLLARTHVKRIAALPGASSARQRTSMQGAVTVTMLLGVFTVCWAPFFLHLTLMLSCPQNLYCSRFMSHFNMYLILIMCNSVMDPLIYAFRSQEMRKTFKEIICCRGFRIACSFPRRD
binder,measurement,setting,value
"QATVGDVNTDRPGLLDLK (also: synthesised on Rink amide resin, C-terminal amide not given here outright) [octadecaneuropeptide (ODN)]","% Activity, arrestin, antagonist mode, 2.5 uM",GLP2R,-15.4%
same,"% Activity, arrestin, antagonist mode, 2.5 uM",PTAFR,-7.3%
same,"% Activity, arrestin, antagonist mode, 2.5 uM",OPRK1,-4.5%
same,"% Activity, arrestin, antagonist mode, 2.5 uM",CCR8,-17%
same,"% Activity, arrestin, antagonist mode, 2.5 uM",NMU1R,-34.2%
same,"% Activity, arrestin, antagonist mode, 2.5 uM",TBXA2R,16.2%
same,"% Activity, arrestin, antagonist mode, 2.5 uM",SSTR1,-1.6%
same,"% Activity, arrestin, antagonist mode, 2.5 uM",TACR1,-17.6%
same,"% Activity, arrestin, antagonist mode, 2.5 uM",MTNR1A,2.2%
same,"% Activity, arrestin, antagonist mode, 2.5 uM",CXCR7,-9.6%
same,"% Activity, arrestin, antagonist mode, 2.5 uM",F2RL1,-9.2%
same,"% Activity, arrestin, antagonist mode, 2.5 uM",CHRM5,-1.5%
same,"% Activity, arrestin, antagonist mode, 2.5 uM",P2RY4,12.9%
same,"% Activity, arrestin, antagonist mode, 2.5 uM",GPR1,-1.3%
same,"% Activity, arrestin, antagonist mode, 2.5 uM",MC5R,5.9%
